According to patent publication US20250243274A1 (JIBE THERAPEUTICS, published 2025):

Biological target: the molecule itself
Assay: SDS-PAGE, no laddering in the reduced lane

B1: JIB34 (bispecific antibody)
heavy: QVQLQQPGAELVKPGASVKMSCKASGYTFTNYWINWVKQRPGQGLEWIGDIYPGGGITNYNEKFKTKATLTLDTSSSTVYMQLSSLTSEDSAVYYCSRSYGKYFDYWGQGTTLIVSSASTKGPSVFPLAPSSKSTSGGTAALGCLVKDYFPEPVTVSWNSGALTSGVHTCPAVLQSSGLYSLSSVVTVPSSSLGTQTYICNVNHKPSNTKVDKKVEPKSSDKTHTGGHHHHHH
light: DIKMTQSPSSMYASVGERVTITCKASQDIKSYLTWYQKKPWKSPRTLIFYSTRLADGVPSRFSGSGSGQDFSLTISSLESDDTATYYCLQHDESPFTFGGGTKLEIKRTVAAPSVFIFPPSDEQLKSGTASVVCLLNNFYPREAKVQWKVDNALQSGNSQESVTEQDSKDSTYSLCSTLTLSKADYEKHKVYACEVTHQGLSSPVTKSFNRGESGGGGSGGGGSGGGGSDIQMTQSPSSLSASVGDRVTITCRASQDIRNYLNWYQQKPGKAPKLLIYYTSRLESGVPSRFSGSGSGTDYTLTISSLQPEDFATYYCQQGNTLPWTFGQGTKVEIKGGGGSGGGGSGGGGSEVQLVESGGGLVQPGGSLRLSCAASGYSFTGYTMNWVRQAPGKGLEWVALINPTKGVSTYNQKFKDRFTISVDKSKNTAYLQMNSLRAEDTAVYYCARSGYYGDSDWYFDVWGQGTLVTVSS
notes: HP6017 Fab (bDS) with HzUCHT1 scFv on the light chain; also called anti-Fc HP6017 HzUCHT1 IgR
B1: no binding.
